{"source": "paper PMC2978346", "biological_target": "His6-PfSSB (Plasmodium falciparum 3D7, UniProt Q8I415 77-284)", "test": "EMSA", "data": [{"binder": "70-mer ssDNA oligonucleotide (ssDNA) DNA: CTGCCACACACCACCAAAGCTAACTGACAGGAGAATCCAGATGGATCATTTAAAGCATTTGCAACAATTG", "values": [{"measurement": "binding result", "value": "binds"}]}]}
